Values belong to the binder of their own block, whether it stands above or below them.
Molecular target: VP4 coated on microplates (indirect blocking ELISA) (Rotavirus A, simian strain SA11 …, UniProt A2T3T2)
Test: ELISA

binding result: binds
B1: m41# (engineered mouse Fc version of 41#) (antibody, V domains shown)
VH: EVQLVESGGGPVQPGGSLKLSCAASGFTFSNYEMYWVRQAPGKGLEWVSYISTSPAITYYADSVRGRFTISRDNAKSSLYLHMNSLRAEDTAVYYCATISHQQFSSGWNAWFDPWGQGTLVTVSG
VL: NFMLTQPHSVSESPGKTVTISCTGSSGSIASNYVQWYRQRPGSAPTTVIYENYQRPSGVPARFSGSIDRSSNSASLTISGLQTDDEADYYCQSYDNNNLWVFGGGTKLTVL

binding result: binds
B2: C7H13 (chimeric antibody: variable regions of 7H13 in a human antibody framework) (antibody, V domains shown)
VH: QVQLKESGPGLVAPSQSLSITCTVSGFSLSRYSVHWVRQPPGKGLEWLGMIWNIGSTDYNSALKSRLSISKDNSQSQVFLKLNSLQTDDAAIYYCARNSGFDLFDFWGQGTTLTVS
VL: DIVMTQSHKFMSTSVGDRVSITCKASQDVTSAVAWYQQKPGQSPKLLISSASYRYTGVPDRFSGSGSGTDFTFTISSVQAEDLAVYYCQQHYSTPPTFGAGTKLELK
